Assay results as given in US20030158389A1.
Read-outs that look alike come from different tables or passages of the source.

Columns and labels:
[1] = biological target: human C1q (Quidel, San Diego, Calif.) (human) (UniProt P02745); test: cell-based or functional assay
[2] = biological target: human C1q (Quidel, San Diego, Calif.) (human) (UniProt P02745); test: C1q binding ELISA, antibody coated on plate, 2 µg/ml C1q
[3] = biological target: CD20 antigen on WIL2-S cells (UniProt P11836); test: flow cytometry on WIL2-S cells expressing CD20
Sequence of CD20 antigen on WIL2-S cells (P11836 whole entry): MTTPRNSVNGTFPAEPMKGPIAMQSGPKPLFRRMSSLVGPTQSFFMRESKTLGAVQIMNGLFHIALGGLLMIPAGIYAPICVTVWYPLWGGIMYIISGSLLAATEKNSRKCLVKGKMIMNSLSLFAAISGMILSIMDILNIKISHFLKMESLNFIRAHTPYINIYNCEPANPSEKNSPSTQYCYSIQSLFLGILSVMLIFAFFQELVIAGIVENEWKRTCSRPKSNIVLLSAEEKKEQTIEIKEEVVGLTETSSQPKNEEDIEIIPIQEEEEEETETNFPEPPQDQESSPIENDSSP

[4] = biological target: human C1q (Quidel, San Diego, Calif.) (human) (UniProt P02745); test: C1q binding ELISA, antibody coated on plate, 2 µg/ml C1q; remark: listed apart in the source

Sequence of human C1q (Quidel, San Diego, Calif.) (human) (P02745 23-245 limits assumed, chain 1 of 3): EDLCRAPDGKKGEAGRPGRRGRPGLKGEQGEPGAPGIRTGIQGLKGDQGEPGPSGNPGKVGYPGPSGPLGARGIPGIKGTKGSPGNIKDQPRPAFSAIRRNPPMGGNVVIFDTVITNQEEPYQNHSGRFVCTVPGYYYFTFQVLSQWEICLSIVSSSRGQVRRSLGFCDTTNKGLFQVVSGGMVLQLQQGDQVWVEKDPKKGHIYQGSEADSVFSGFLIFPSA
Sequence of human C1q (Quidel, San Diego, Calif.) (human) (P02746 28-253 limits assumed, chain 2 of 3, further chain): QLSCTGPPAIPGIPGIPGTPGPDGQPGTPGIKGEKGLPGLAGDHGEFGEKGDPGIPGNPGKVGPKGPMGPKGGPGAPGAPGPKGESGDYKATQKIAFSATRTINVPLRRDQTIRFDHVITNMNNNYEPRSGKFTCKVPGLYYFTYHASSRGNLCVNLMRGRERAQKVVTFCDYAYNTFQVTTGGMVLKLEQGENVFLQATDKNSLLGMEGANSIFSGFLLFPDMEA
Sequence of human C1q (Quidel, San Diego, Calif.) (human) (P02747 29-245 limits assumed, chain 3 of 3, further chain): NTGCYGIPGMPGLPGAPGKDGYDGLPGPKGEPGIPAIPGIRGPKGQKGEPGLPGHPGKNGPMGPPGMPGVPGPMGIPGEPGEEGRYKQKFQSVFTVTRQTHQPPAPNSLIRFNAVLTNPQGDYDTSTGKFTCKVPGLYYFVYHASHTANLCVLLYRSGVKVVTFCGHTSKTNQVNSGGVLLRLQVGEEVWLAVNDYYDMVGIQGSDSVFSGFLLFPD

With “C2B8 double mutant K326A-E333A (antibody)” as the substance, how does the CDC, fold better than wild type C2B8 [1] read?
The CDC, fold better than wild type C2B8 was greater than 2 fold.

And the fold better binding than wild type C2B8 [2]?
Its fold better binding than wild type C2B8 is greater than 3 fold.

For “C2B8 double mutant K326M-E333S (antibody)”, which CDC, fold better than wild type C2B8 [1] is on record?
Its CDC, fold better than wild type C2B8 is greater than 2 fold.

And the fold better binding than wild type C2B8 [2]?
Its fold better binding than wild type C2B8 is greater than 3 fold.

Which CDC, percentage of the wild type [1] does the source give for C2B8 mutant E318A (antibody) here?
Its CDC, percentage of the wild type is 108%.

What about the percent decrease in binding against wild type C2B8 [2] of the same substance?
The percent decrease in binding against wild type C2B8 was 30%.

And the EC50 as percentage of the wild type [3]?
The EC50 as percentage of the wild type was 89%.

For C2B8 mutant E333A (antibody), which EC50 [2] is on record?
Its EC50 is 0.98 µg/mL.

What about the percent increase in binding against wild type [2] of the same substance?
The percent increase in binding against wild type was 30%.

How did the EC50 [2] turn out when C2B8 mutant E333D (antibody) was run?
Its EC50 is 1.22 µg/mL.

C2B8 mutant E333G (antibody) was tested. Which EC50 [2] did it give?
Its EC50 is 1.14 µg/mL.

With C2B8 mutant E333Q (antibody) as the substance, how does the EC50 [2] read?
The EC50 was 1.52 µg/mL.

C2B8 mutant E333S (antibody) was tested. Which EC50 [2] did it give?
Its EC50 is 0.81 µg/mL.

What about the fold increase in binding against wild type [2] of the same substance?
Its fold increase in binding against wild type is 2 fold.

Which EC50 [2] does the source give for C2B8 mutant E333V (antibody) here?
Its EC50 is 1.18 µg/mL.

What does the source list for C2B8 mutant K320A (antibody)?
CDC, percentage of the wild type [1]: 108%; EC50 as percentage of the wild type [3]: 102%

Which EC50 [2] does the source give for C2B8 mutant K326A (antibody) here?
Its EC50 is 1.03 µg/mL.

What about the percent increase in binding against wild type [2] of the same substance?
The percent increase in binding against wild type was 30%.

Which results are given for C2B8 mutant K326D (antibody)?
EC50 [2]: 0.76 µg/mL; fold increase in binding against wild type [4]: > 2 fold

What does the source list for C2B8 mutant K326E (antibody)?
EC50 [2]: 1.08 µg/mL; fold increase in binding against wild type [4]: > 2 fold

C2B8 mutant K326G (antibody) was tested. Which EC50 [2] did it give?
Its EC50 is 0.95 µg/mL.

C2B8 mutant K326M (antibody) was tested. Which EC50 [2] did it give?
Its EC50 is 0.67 µg/mL.

What about the fold increase in binding against wild type [4] of the same substance?
The fold increase in binding against wild type was greater than 2 fold.

With C2B8 mutant K326V (antibody) as the substance, how does the EC50 [2] read?
Its EC50 is 1.3 µg/mL.

Which results are given for C2B8 mutant K326W (antibody)?
EC50 [2]: 0.47 µg/mL; fold increase in binding against wild type [2]: 5 fold; fold increase in binding against wild type [4]: > 2 fold

Which EC50 [2] does the source give for C2B8 mutant K334A (antibody) here?
The EC50 was 1.07 µg/mL.

What about the percent increase in binding against wild type [2] of the same substance?
Its percent increase in binding against wild type is greater than 30%.

For C2B8 mutant P329A (antibody), which EC50 as percentage of the wild type [3] is on record?
Its EC50 as percentage of the wild type is 112%.

With C2B8 mutant P331A (antibody) as the substance, how does the fold lower binding than wild type C2B8 [2] read?
The fold lower binding than wild type C2B8 was 60 fold.

What about the EC50 as percentage of the wild type [3] of the same substance?
Its EC50 as percentage of the wild type is 103%.

“C2B8 mutant with A327 in the human IgG1 constant region changed to glycine (antibody)” was tested. Which percent increase in binding against wild type [2] did it give?
Its percent increase in binding against wild type is 50%.
